{"source": "patent US6974798B2", "about": "“Treatment of balance impairments” (Genentech, Inc., priority 1995, dated 2005)", "molecules": {"B1": {"name": "E92A: NT-3 mutant with mutation at position E92 to alanine (protein, UniProt P20783 139-257, looked up, variant E92A)", "Neurotrophin-3": "YAEHKSHRGEYSVCDSESLWVTDKSSAIDIRGHQVTVLGEIKTGNSPVKQYFYETRCKEARPVKNGCRGIDDKHWNSQCKTSQTYVRALTSANNKLVGWRWIRIDTSCVCALSRKIGRT"}, "B2": {"name": "NT-3: human recombinant neurotrophin-3, ligand of trkC (protein)", "chain": "YAEHKSHRGEYSVCDSESLWVTDKSSAIDIRGHQVTVLGEIKTGNSPVKQYFYETRCKEARPVKNGCRGIDDKHWNSQCKTSQTYVRALTSENNKLVGWRWIRIDTSCVSALSRKIGRT"}, "B3": {"name": "BDNF: human recombinant brain-derived neurotrophic factor, ligand of trkB (protein)", "chain": "HSDPARRGELSVCDSISEWVTAADKKTAVDMSGGTVTVLEKVPVSKGQLKQYFYETKCNPMGYTKEGCRGIDKRHWNSQCRTTQSYVRALTMDSKKRIGWRFIRIDTSCVTLTIKRGR"}, "B4": {"name": "NT-4/5: human recombinant neurotrophin-4/5 (Genentech, Inc.), ligand of trkB (protein)", "chain": "GVSETAPASRRGELAVCDAVSGWVTDRRTAVDLRGREVEVLGEVPAAGGSPLRQYFFETRCKADNAEEGGPGAGGGGCRGVDRRHWVSECKAKQSYVRALTAHAQGRVGWRWIRIDTACVCTLLSRTGRA"}}, "key": {"[1]": {"details": "cited from earlier work"}, "[2]": {"system": "vestibular ganglion neurons (VGNs)", "assay": "VGN survival in dissociated cell culture, serum-free medium, 2 days", "type": "cell-based, rat", "details": "for survival-promoting effect on VGNs: 10 ng/ml added at plating", "experimental": "(§1) The effects of trkB or trkC agonists to enhance neuronal survival was determined using VGNs in cell culture. VGN cell culture was prepared as follows. Vestibular ganglia were dissected from postnatal day 5 (P5) Wistar rats and were incubated in a mixture of 0.125% trypsin and 0.125% collagenase for 25 min at 37° C. The enzyme was inactivated with a mixture of 0.005% soybean trypsin inhibitor (Sigma) and 0.005% DNase (Worthington) before trituration with 0.05% DNase in Eagle's Basal Medium (“BME”). After the undissociated tissues were separated by filtering with a Nylon meshwork (33 μm in pore size), the dissociated cells were preplated on a 35 mm untreated tissue culture dish for 25 min to enrich the neuronal population. Under these experimental procedures, about 3-5% of the cell population were vestibular ganglion neurons (VGNs) as determined by immunocytochemistry with a monoclonal antibody (N52; Boehringer) against neurofilament (200 kd). The cell suspension was finally plated on polylysine (500 μg/ml)laminin (20 μg/ml) coated 16-well LabTek slides in 200 μl of serum-free medium (BME plus serum-free supplement (Sigma I-1884), 1% BSA, 2 mM glutamine, and 5 mg/ml glucose) containing no antibiotics. Cells were plated at a density of 100,000/well.\nAll human recombinant neurotrophins (obtained from Genentech, Inc.) were added to the cultures at the time of plating.\n(§2) Cell counts and data analysis were performed as follows. After 2 days in culture, viable VGNs were identified by labeling with the neurofilament monoclonal antibody N52 and counted using a grid ocular reticule covering an area of 1 mm^2 under a Zeiss Axiophot microscope. For each culture, about 10 randomly selected fields were counted. In these experiments, cell counts were performed in the same way for control cultures. Data were collected from triplet cultures for each of the experimental groups. Data were then normalized as a percentage of the viable VGNs in the control cultures in each of the experiments.\nThe effect of neurotrophins on cell survival was determined on VGNs which were dissociated from postnatal day 5 (P5) rat vestibular ganglia and plated in defined serum-free medium. Neurofilament protein immunocytochemistry using bright field microscopy was performed in the VGN cultures in serum-free medium in the absence or presence of 10 ng/ml of NT-4/5. In control cultures in serum-free medium without neurotrophins, about 35% of VGNs survived after 2 days. […] The survival-promoting effects of NT-4/5 on cultured VGNs were dose-dependent (FIG. 1)."}, "[3]": {"system": "vestibular ganglion neurons (VGNs)", "assay": "Protection of cultured VGNs from cisplatin neurotoxicity", "type": "cell-based, rat", "details": "for protective effect against cisplatin neurotoxicity: 1, 2 or 4 μg/ml cisplatin, 10 ng/ml factor, 2 days", "experimental": "as §1, §2\n(§3) The ability of trkB or trkC agonists to protect neurons from ototoxicity was determined using VGNs in cell culture. […] All human recombinant neurotrophins (Genentech, Inc.) were added to the cultures at the time of plating. To block the effects of the neurotrophins, 1 μg/ml of trkB-IgG or trkC-IgG (kindly provided by Dr. Dave Shelton), specific antagonists for NT-4/5 (and BDNF) or NT-3, respectively (Shelton et al., 1995), was added to some of the experimental cultures at the same time when neurotrophins were added. […] In other experiments, epidermal growth factor (EGF), basic fibroblast growth factor (βFGF) and insulin-like growth factor-1 (IGF-1) were added to the culture at the time of plating at a concentration of 10 ng/ml. […] In these experiments, cell counts were performed in the same way for control cultures."}, "trkC receptor": {"molecular_target": "trkC receptor (Homo sapiens, UniProt Q16288)", "sequence (Q16288 32-839)": "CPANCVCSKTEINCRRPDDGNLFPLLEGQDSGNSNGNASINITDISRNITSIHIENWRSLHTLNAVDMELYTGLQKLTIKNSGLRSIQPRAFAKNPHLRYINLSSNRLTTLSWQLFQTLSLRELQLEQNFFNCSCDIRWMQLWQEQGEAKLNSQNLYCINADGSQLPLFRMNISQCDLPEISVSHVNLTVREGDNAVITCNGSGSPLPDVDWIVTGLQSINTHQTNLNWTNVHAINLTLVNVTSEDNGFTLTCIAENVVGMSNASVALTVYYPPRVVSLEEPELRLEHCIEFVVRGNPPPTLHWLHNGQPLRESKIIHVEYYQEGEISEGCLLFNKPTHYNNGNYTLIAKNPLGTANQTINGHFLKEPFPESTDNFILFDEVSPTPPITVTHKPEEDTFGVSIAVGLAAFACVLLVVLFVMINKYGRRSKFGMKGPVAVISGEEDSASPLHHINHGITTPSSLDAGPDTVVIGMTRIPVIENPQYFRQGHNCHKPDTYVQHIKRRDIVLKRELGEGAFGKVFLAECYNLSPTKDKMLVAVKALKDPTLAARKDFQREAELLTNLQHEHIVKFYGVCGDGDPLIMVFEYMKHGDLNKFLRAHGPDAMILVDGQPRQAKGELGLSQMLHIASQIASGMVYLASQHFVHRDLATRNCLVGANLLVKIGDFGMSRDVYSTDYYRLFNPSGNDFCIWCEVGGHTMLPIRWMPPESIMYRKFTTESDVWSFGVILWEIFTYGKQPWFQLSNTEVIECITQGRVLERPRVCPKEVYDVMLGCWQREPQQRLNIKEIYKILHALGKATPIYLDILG", "details": "cited from earlier work; for trkC binding of NT-3 mutants: relative to NT-3"}, "trkB receptor": {"molecular_target": "trkB receptor (Homo sapiens, UniProt Q16620)", "sequence (Q16620 32-822)": "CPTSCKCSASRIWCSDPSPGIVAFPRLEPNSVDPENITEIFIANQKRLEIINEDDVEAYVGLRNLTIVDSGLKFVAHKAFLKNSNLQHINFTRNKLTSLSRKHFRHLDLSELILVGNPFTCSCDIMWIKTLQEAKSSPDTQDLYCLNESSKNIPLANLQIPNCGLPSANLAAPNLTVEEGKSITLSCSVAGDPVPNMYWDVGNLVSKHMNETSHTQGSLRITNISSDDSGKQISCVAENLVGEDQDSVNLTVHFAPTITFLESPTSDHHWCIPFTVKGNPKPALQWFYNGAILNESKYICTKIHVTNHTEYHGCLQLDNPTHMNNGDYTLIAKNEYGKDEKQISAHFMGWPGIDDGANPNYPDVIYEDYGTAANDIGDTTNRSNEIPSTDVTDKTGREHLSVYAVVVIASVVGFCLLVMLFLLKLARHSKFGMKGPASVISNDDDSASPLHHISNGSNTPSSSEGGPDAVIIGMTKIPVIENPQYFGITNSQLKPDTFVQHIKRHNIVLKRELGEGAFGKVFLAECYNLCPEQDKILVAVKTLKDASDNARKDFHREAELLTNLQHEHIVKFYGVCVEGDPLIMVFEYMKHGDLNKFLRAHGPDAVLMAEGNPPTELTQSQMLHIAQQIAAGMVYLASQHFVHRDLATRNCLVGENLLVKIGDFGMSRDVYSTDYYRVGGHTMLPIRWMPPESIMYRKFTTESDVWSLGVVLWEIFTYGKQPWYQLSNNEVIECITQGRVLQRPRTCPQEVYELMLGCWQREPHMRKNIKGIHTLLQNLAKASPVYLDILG", "details": "naturally occurring NGF versus BDNF; cited from earlier work"}, "[4]": {"system": "vestibular ganglion neurons (VGNs)", "assay": "Protection of cultured VGNs against gentamicin neurotoxicity", "type": "cell-based, rat", "details": "FIG. 5; for protective effect against gentamicin neurotoxicity: 1, 2 or 3 mg/ml gentamicin, 10 ng/ml factor, 2 days", "experimental": "as §1, §2, §3"}, "[5]": {"system": "vestibular ganglion neurons (VGNs)", "assay": "Blocking of neurotrophin survival-promoting effects by trkB-IgG / trkC-IgG in VGN culture", "type": "cell-based, rat", "details": "for effect on VGN cultures by themselves (without neurotrophin): 1 μg/ml, alone; for effect of trkB-IgG and trkC-IgG together on the effects of NT-4/5 and NT-3: both fusion proteins together", "experimental": "as §1, §2\nTrkB-IgG and trkC-IgG have been previously reported to be specific antagonists for NT-4/5 (or BDNF) and NT-3, respectively (Shelton et al., 1995). To confirm that the survival-promoting effects of NT-4/5, BDNF and NT-3 were specific, trkB-IgG or trkC-IgG fusion protein was added to the culture along with NT-4/5, BDNF or NT-3. All human recombinant neurotrophins (Genentech, Inc.) were added to the cultures at the time of plating. To block the effects of the neurotrophins, 1 μg/ml of trkB-IgG or trkC-IgG (kindly provided by Dr. Dave Shelton), specific antagonists for NT-4/5 (and BDNF) or NT-3, respectively (Shelton et al., 1995), was added to some of the experimental cultures at the same time when neurotrophins were added."}, "[6]": {"details": "culture containing cisplatin, FIG. 4"}}, "note": "“Also recorded” adds a separate entry of the source."}
{"molecule": "[H]/N=C(/N)N[C@H]1[C@H](O)[C@@H](O)[C@H](O[C@@H]2O[C@@H](C)[C@](O)(C=O)[C@H]2O[C@@H]2O[C@@H](CO)[C@H](O)[C@@H](O)[C@@H]2NC)[C@@H](N/C(N)=N\\[H])[C@@H]1O", "note": "[streptomycin]", "values": [{"measurement": "incidence of vestibular impairment", "setting": "[1]; 1 gram per day", "value": 25, "unit": "%"}, {"measurement": "patients displaying some vestibular impairment", "setting": "[1]; 2 grams daily for 60 to 120 days", "value": "~75", "unit": "%"}]}
{"molecule": "EGF: epidermal growth factor", "values": [{"measurement": "survival-promoting effect on VGNs", "setting": "[2]; 2 days, FIG. 2", "value": "not affected; also recorded: did not produce significant effects"}]}
{"molecule": "IGF-1: insulin-like growth factor-1", "values": [{"measurement": "survival-promoting effect on VGNs", "setting": "[2]; 2 days, FIG. 2", "value": "not affected; also recorded: did not produce significant effects"}]}
{"molecule": "NGF: human recombinant nerve growth factor, ligand of trkA", "values": [{"measurement": "protective effect against cisplatin neurotoxicity", "setting": "[3]; FIG. 4", "value": "no protective effects"}, {"measurement": "survival-promoting effect on VGNs", "setting": "[2]; 2 days, FIG. 2", "value": "did not show any detectable effect; also recorded: did not produce significant effects"}, {"measurement": "KD at trkC relative to NT-3 (fold lower)", "setting": "trkC receptor; naturally occurring NGF versus NT-3", "value": "500-1000 fold"}, {"measurement": "KD at trkB relative to BDNF (fold lower)", "setting": "trkB receptor", "value": "500-1000 fold"}, {"measurement": "protective effect against gentamicin neurotoxicity", "setting": "[4]", "value": "showed no effect"}]}
{"molecule": "R31A: NT-3 mutant with mutation at position R31 to alanine", "values": [{"measurement": "trkC binding of NT-3 mutants", "setting": "trkC receptor", "value": "increased trkC binding"}]}
{"molecule": "trkB-IgG: trkB-IgG fusion protein, specific antagonist for NT-4/5 and BDNF (Shelton et al., 1995)", "values": [{"measurement": "inhibition of the survival-promoting effect of BDNF", "setting": "[5]; 1 μg/ml antagonist, 10 ng/ml BDNF, FIG. 3", "value": "completely abolished; also recorded: inhibit"}, {"measurement": "inhibition of the survival-promoting effect of NT-4/5", "setting": "[5]; 1 μg/ml antagonist, 10 ng/ml NT-4/5, FIG. 3", "value": "completely abolished; also recorded: inhibit"}, {"measurement": "effect on VGN cultures by themselves (without neurotrophin)", "setting": "[5]", "value": "did not show detectable effects"}, {"measurement": "effect of trkB-IgG and trkC-IgG together on the effects of NT-4/5 and NT-3", "setting": "[5]", "value": "blocked"}]}
{"molecule": "trkC-IgG: trkC-IgG fusion protein, specific antagonist for NT-3 (Shelton et al., 1995)", "values": [{"measurement": "inhibition of the survival-promoting effect of NT-3", "setting": "[5]; 1 μg/ml antagonist, 10 ng/ml NT-3, FIG. 3", "value": "inhibited the activity of NT-3; also recorded: inhibit"}, {"measurement": "effect on VGN cultures by themselves (without neurotrophin)", "setting": "[5]", "value": "did not show detectable effects"}, {"measurement": "effect of trkB-IgG and trkC-IgG together on the effects of NT-4/5 and NT-3", "setting": "[5]", "value": "blocked"}]}
{"molecule": "βFGF: basic fibroblast growth factor", "values": [{"measurement": "survival-promoting effect on VGNs", "setting": "[2]; 2 days, FIG. 2", "value": "not affected; also recorded: did not produce significant effects"}]}
{"molecule": "B1", "values": [{"measurement": "trkC binding of NT-3 mutants", "setting": "trkC receptor", "value": "increased trkC binding"}]}
{"molecule": "B2", "values": [{"measurement": "protective effect against cisplatin neurotoxicity", "setting": "[3]; FIG. 4", "value": "Significant protective, but less potent effects; also recorded: very significant protecting effects at all three doses"}, {"measurement": "survival-promoting effect on VGNs", "setting": "[2]; 2 days, FIG. 2", "value": "significant effect (p<0.01) but was less potent than NT-4/5 and BDNF; also recorded: very significant survival promoting effects"}, {"measurement": "protective effect against gentamicin neurotoxicity", "setting": "[4]", "value": "significantly protective effect; also recorded: very significant protective effects at all three doses of gentamicin"}]}
{"molecule": "B3", "values": [{"measurement": "protective effect against cisplatin neurotoxicity", "setting": "[3]; FIG. 4", "value": "equivalent effectiveness; also recorded: very significant protecting effects at all three doses"}, {"measurement": "survival-promoting effect on VGNs", "setting": "[2]; 2 days, FIG. 2", "value": "equivalent to NT-4/5; also recorded: very significant survival promoting effects"}, {"measurement": "increase in the number of surviving VGNs", "setting": "[2]; P5 rat VGNs, 2 days in serum-free medium, versus control culture without neurotrophin", "value": 2, "unit": "fold"}, {"measurement": "protective effect against gentamicin neurotoxicity", "setting": "[4]", "value": "an effect equivalent to NT-4/5; also recorded: very significant protective effects at all three doses of gentamicin"}]}
{"molecule": "B4", "values": [{"measurement": "number of surviving VGNs relative to cisplatin alone and to control", "setting": "[3]; 1 μg/ml or 2 μg/ml cisplatin, 10 ng/ml neurotrophin", "value": "higher than the control culture without cisplatin"}, {"measurement": "VGN survival", "setting": "[3]; 4 μg/ml cisplatin, 10 ng/ml neurotrophin, FIG. 4", "value": "about 60 % of the survival levels of control cultures in the absence of cisplatin"}, {"measurement": "protective effect against cisplatin neurotoxicity", "setting": "[3]; FIG. 4", "value": "significantly ameliorated the toxic effects of cisplatin; also recorded: very significant protecting effects at all three doses"}, {"measurement": "additive effect, NT-4/5 combined with BDNF, cisplatin culture", "setting": "[3]; [6]", "value": "no additive effects were observed"}, {"measurement": "additive effect, NT-4/5 combined with NT-3, cisplatin culture", "setting": "[3]; [6]", "value": "no additive effects were observed"}, {"measurement": "survival-promoting effect on VGNs", "setting": "[2]; 2 days, FIG. 2", "value": "very significant survival promoting effects"}, {"measurement": "additive/synergistic effect on VGN survival, NT-4/5 combined with BDNF", "setting": "[2]; 10 ng/ml, FIG. 2", "value": "no synergistic effects were observed"}, {"measurement": "additive/synergistic effect on VGN survival, NT-4/5 combined with NT-3", "setting": "[2]; 10 ng/ml, FIG. 2", "value": "no synergistic effects were observed"}, {"measurement": "survival-promoting effect on VGNs over the dose range", "setting": "[2]; NT-4/5 at different concentrations, 2 days, FIG. 1", "value": "dose-dependent; also recorded: very significant survival-promoting effects"}, {"measurement": "concentration of maximal survival-promoting effect", "setting": "[2]; doses from 0.1 to 50 ng/ml examined, FIG. 1", "value": 10, "unit": "ng/mL"}, {"measurement": "protective effect against gentamicin neurotoxicity", "setting": "[4]", "value": "very significant protective effects at all three doses of gentamicin"}, {"measurement": "additive effect, NT-4/5 combined with BDNF, gentamicin culture", "setting": "[4]; culture containing gentamicin", "value": "no additive effects were observed"}, {"measurement": "additive effect, NT-4/5 combined with NT-3, gentamicin culture", "setting": "[4]; culture containing gentamicin", "value": "no additive effects were observed"}]}
